Measurements: patent publication US20250011421A1 (GUANGDONG ANNPO BIOTECHNOLOGY, published 2025)

T1: hTIGIT-His protein (human, UniProt Q495A1 22-141)
T1 construct: Coated on the ELISA plate at 0.5 µg/mL; also called antigen hTIGIT-his protein; not shown: His tag
T1 sequence (looked up): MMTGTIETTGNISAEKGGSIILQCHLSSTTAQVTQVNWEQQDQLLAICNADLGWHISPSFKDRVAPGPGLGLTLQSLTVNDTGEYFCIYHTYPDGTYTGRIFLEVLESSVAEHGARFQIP

T2: hTIGIT on the surface of 293F-hTIGIT-short #1B1 cells (human, UniProt Q495A1 22-162, limits assumed)
T2 construct: domain: extracellular domain and transmembrane domain; It is a truncated ('short') construct without the cytoplasmic part; also called 293F-hTIGIT-short cells; 293F-hTIGIT-short #1B1 cell line
T2 sequence (looked up): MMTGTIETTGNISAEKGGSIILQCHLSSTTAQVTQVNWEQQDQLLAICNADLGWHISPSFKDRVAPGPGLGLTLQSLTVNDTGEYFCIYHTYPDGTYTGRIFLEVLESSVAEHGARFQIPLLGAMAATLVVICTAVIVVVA

T3: mouse-derived TIGIT protein (accession number: NP_001139797.1) (mouse, UniProt P86176 29-148, limits assumed)
T3 construct: also called mouse TIGIT
T3 sequence (looked up): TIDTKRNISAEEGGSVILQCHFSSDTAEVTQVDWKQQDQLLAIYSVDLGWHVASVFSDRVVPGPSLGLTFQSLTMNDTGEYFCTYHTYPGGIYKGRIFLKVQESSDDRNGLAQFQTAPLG


Assays:
hTIGIT-His protein [1] = target: T1, hTIGIT-His protein; test: ELISA on hTIGIT-His, method as in Example 3
Protocol: (§1) The hTIGIT-his protein was diluted to 0.5 μg/mL with CBS buffer, coated in an ELISA plate in 50 μL/well, and left at 4° C. overnight. The plate was washed with PBST buffer for three times, 200 μL/well, and patted dry. 1% of BSA (dissolved in PBS) was then added, 200 μL/well, and the plate was incubated at 37° C. for 2 hours. After incubation, the plate was washed with PBST for three times, 200 μL/well, and patted dry. […] 100 μL was sucked with a multi-channel pipette, transferred into the ELISA plate, and incubated at 37° C. for 1 hour. After incubation, the plate was washed with PBST for three times, 200 μL/well, and patted dry. An anti-mouse IgG antibody labeled by HRP was diluted with 1% of BSA (dissolved in PBST) (diluted at 1:5000), 100 μL/well. Incubation was performed at 37° C. for 1 hour. After incubation, the plate was washed with PBST for three times, 200 μL/well, and patted dry. 50 μL of TMB chromogen solution was added into each well for chromogenic reaction, and the reaction time was 5 minutes in the dark. After 5 minutes of incubation, hydrochloric acid stop solution was directly added to stop the reaction in 50 μL/well. Absorbances at 450 nm (OD450) were detected by the light absorption mode of a microplate reader.

[2] = target: T2, hTIGIT on the surface of …; test: flow cytometry on cells expressing hTIGIT, method as in Example 3
Protocol: (§2) The 293F-hTIGIT-short #1B1 cell line was digested, terminated, centrifuged, resuspended and counted, and the cell density was adjusted to 4×10⁶ cells/mL. According to 50 μL/tube, 20×10⁴ cells were added into 1.5 mL EP tubes. […] The blank group was added with 150 μL of PBS as a blank control. Gentle blowing and mixing were performed, and incubation was performed on ice for 1 hour. After incubation, 500 μL of PBS was added for centrifugal washing once, centrifugation was performed at 2000 rpm for 5 minutes, and the supernatants were discarded. A fluorescent secondary antibody was added (Alexa® 488 fluorescently labeled anti-mouse IgG antibody was diluted with PBS (diluted at 1:500) and added to the corresponding tubes in 200 μL/tube), gentle blowing and mixing were performed, and incubation was performed on ice in the dark for 30 minutes. After 30 minutes of incubation, signal detection was performed with a flow cytometer.
The method was the same as that in example 3.

[3] = target: T2, hTIGIT on the surface of …; test: flow cytometry competition on 293F-hTIGIT-short cells; competitor PVR (method as in Example 4)
hTIGIT-His protein [4] = target: T1, hTIGIT-His protein; test: ELISA, hTIGIT-His coated at 0.5 µg/mL
Protocol: as §1

[5] = target: T3, mouse-derived TIGIT protein (accession …); test: indirect ELISA, method as in Example 3
Protocol: as §1, with “The” for “The hTIGIT-his protein was diluted to 0.5 μg/mL with CBS buffer, coated in an ELISA plate in 50 μL/well, and left at 4° C. overnight. The”

[6] = target: T2, hTIGIT on the surface of …; test: flow cytometry on 293F-hTIGIT-short #1B1 cells
Protocol: as §2

[7] = target: T2, hTIGIT on the surface of …; test: flow cytometry competition on 293F-hTIGIT-short #1B1 cells; competitor PVR-hFc at 6 µg/mL
Protocol: The 293F-hTIGIT-short #1B1 cell line was digested, terminated, centrifuged, resuspended and counted, and the cell density was adjusted to 4×10⁶ cells/mL. According to 50 μL/tube, 20×10⁴ cells were added into 1.5 mL EP tubes. […] 100 μL of PBS was added into the blank group. Gentle blowing and mixing were performed, and incubation was then performed on ice for 1 hour. After incubation, 500 μL of PBS was added for centrifugal washing once, centrifugation was performed at 2000 rpm for 5 minutes, and the supernatants were discarded. Alexa® 488 fluorescently labeled anti-mouse or anti-human IgG antibody was diluted with PBS (diluted at 1:500) and added to the corresponding tubes in 200 μL/tube, gentle blowing and mixing were performed, and incubation was performed on ice in the dark for 30 minutes. After 30 minutes of incubation, signal detection was performed with a flow cytometer.

[8] = target: T2, hTIGIT on the surface of …; test: flow cytometry competition on 293F-hTIGIT-short #1B1 cells; competitor 4.1D3 at 6 µg/mL, detected with anti-human IgG
Protocol: Cells were collected and counted. […] Seven concentrations were obtained by gradient dilution in 1:3, and added into the corresponding tubes in 50 μL/tube. […] After incubation, 500 μL of PBS was added for centrifugal washing once, centrifugation was performed at 1000 rpm for 5 minutes, and the supernatants were discarded. […] After 30 minutes of incubation, they were loaded for assay. The samples were loaded for assay by using a flow cytometer.

EC50 (hTIGIT-His protein [1]) [mg/L]	EC50 [2] [mg/L]	IC50 [3] [mg/L]	EC50 (hTIGIT-His protein [4]) [mg/L]	binding result [5]	EC50 [6] [mg/L]	IC50 [7] [mg/L]	IC50 [8] [mg/L]	Binder
0.007	2.98	5.21	–	–	–	–	–	hTIGIT humanized antibody h51C1 (antibody, human IgG1, V domains shown, also called 51C1-H2L2) VH: QVQLVQSGAEVKKPGASVKVSCKASGYTFTEYFIHWVRQAPGQGLEWIGWFYPGSGSIKYNERFKDRVTLTADTSISTAYMELSRLRSDDTAVYYCARHEMRYGNYVLDYWGQGTTVTVSS VL: QAVVTQEPSLTVSPGGTVTLTCRSSTGAVTTRNYANWVQQKPGQAPRGLIGGTNNRVPGVPARFSGSLLGGKAALTLSGAQPEDEAEYYCGLWYSNHLVFGGGTKLTVLG
0.006	1.57	2	–	–	–	–	–	hTIGIT humanized antibody h60H5 (antibody, human IgG1, V domains shown, also called 60H5-H2L1) VH: QVQLVQSGAEVKKPGASVKVSCKTSGYTFTEYTMHWVRQAPGQRLEWIGGINPNNGGTSYNQKFQGRVTITVDTSASTAYMELSSLRSEDTAVYYCARSGNWDYAMDYWGQGTTVTVSS VL: DIQMTQSPSSMSASVGDRVTITCKASQHVSTAVVWYQQKPGKAPKLLIYSASYRYTGVPDRFSGSGSGTDFTFTISSLQPEDIATYYCQQHYITPWTFGGGTKLEIKR
–	–	–	0.00396	no binding	0.811	1.35	4.08	hTIGIT mouse-derived antibody m51C1 (antibody, V domains shown, Mouse monoclonal antibody from a hybridoma) VH: QVQLQQSGAELVKPGASVKLSCKASGYTFTEYFIHWIKQKSGQGLEWIGWFYPGSGSIKYNERFKDKATLTADKSSSTVYMELSRLTSEDSAVYFCARHEMRYGNYVLDYWGQGTTLTVSS VL: QAVVTQESALTTSPGETVTLTCRSSTGAVTTRNYANWVQEKPDHLFTGLIGGTNNRVPGVPARFSGSLIGDKAALTITGAQTEDEAIYFCGLWYSNHLVFGGGTKLTVLG
